According to the Human Domainome abundance scans (Beltran et al. 2025):
± gives the uncertainty stated by the source.

B1: COUP transcription factor 1, residues 83 to 159; numbered along this chain, P10589 (parent)
chain: HIECVVCGDKSSGKHYGQFTCEGCKSFFKRSVRRNLTYTCRANRNCPIDQHHRNQCQYCRLKKCLKVGMRREAVQRG

Variants of: B1
Assay: abundance fitness (aPCA) (normalised: wild type 0, dead -1); higher = more abundant; growth selection in yeast, the domain comes from the species named
Details: Homo sapiens

Abundance fitness: each site, then its substitutions
K62: D 0.053 ± 0.064, L -0.015 ± 0.038, R -0.073 ± 0.033, M -0.003 ± 0.049, Q -0.001 ± 0.061, V 0.086 ± 0.037, G -0.143 ± 0.035, N 0.146 ± 0.063, Y -0.512 ± 0.16, W -0.162 ± 0.049, S 0.011 ± 0.041, P -0.573 ± 0.11, C -0.257 ± 0.089, I 0.189 ± 0.068, H -0.198 ± 0.083, A 0.044 ± 0.036
N54: F -0.222 ± 0.1, G -0.153 ± 0.039, Y -0.104 ± 0.088, H -0.116 ± 0.11, W -0.194 ± 0.053, K -0.089 ± 0.082, E 0.075 ± 0.053, P 0.006 ± 0.066, M 0.015 ± 0.061, C -0.314 ± 0.11, I 0.092 ± 0.094, D -0.071 ± 0.079, L -0.029 ± 0.043, V -0.025 ± 0.044, T -0.059 ± 0.059, R -0.353 ± 0.045, S -0.033 ± 0.051, Q -0.091 ± 0.057
R70: L 0.07 ± 0.056, F 0.002 ± 0.12, G -0.152 ± 0.033, H -0.004 ± 0.085, I 0.046 ± 0.16, K 0.153 ± 0.05, C -0.051 ± 0.067, D 0.163 ± 0.052, E 0.135 ± 0.038, A 0.023 ± 0.038
H51: R -0.16 ± 0.039, W 0.012 ± 0.048, N 0.102 ± 0.13, I -0.244 ± 0.13, V -0.051 ± 0.041, T -0.091 ± 0.063, Q 0.081 ± 0.066, L 0.059 ± 0.044, M 0.025 ± 0.066, P -0.138 ± 0.077, G 0.034 ± 0.031, Y -0.09 ± 0.096, K 0.059 ± 0.064
C59: V -0.729 ± 0.068, Q -0.801 ± 0.12, P -0.541 ± 0.094, S -0.853 ± 0.1, R -0.848 ± 0.069, I -1 ± 0.31, L -0.934 ± 0.09, Y -0.789 ± 0.19, W -1.02 ± 0.12, M -0.809 ± 0.13, A -0.668 ± 0.062, D -0.729 ± 0.14, E -0.696 ± 0.078, F -0.978 ± 0.42, G -0.789 ± 0.055, K -0.871 ± 0.14
R60: I -0.227 ± 0.076, C -0.007 ± 0.052, F 0.132 ± 0.059, T -0.007 ± 0.046, E -0.503 ± 0.06, P -0.602 ± 0.092, W 0.139 ± 0.038, V -0.157 ± 0.037, N -0.416 ± 0.1, Q 0.197 ± 0.045, S -0.56 ± 0.064, D -0.535 ± 0.11, A -0.088 ± 0.038, L 0.205 ± 0.034, M 0.283 ± 0.038
K66: C -0.229 ± 0.056, Q 0.055 ± 0.052, E 0.02 ± 0.044, M 0.055 ± 0.043, I -0.079 ± 0.061, L -0.032 ± 0.038, S 0.074 ± 0.036, A 0.003 ± 0.037, T 0.025 ± 0.046, H -0.103 ± 0.068, Y -0.033 ± 0.058, F -0.013 ± 0.066, R -0.021 ± 0.034, G -0.09 ± 0.034, V 0.041 ± 0.035, N 0.058 ± 0.062, P -0.785 ± 0.11
Y58: K -0.366 ± 0.066, M -0.312 ± 0.063, R -0.458 ± 0.043, V -0.787 ± 0.073, E 0.027 ± 0.04, D -0.046 ± 0.059, I -0.866 ± 0.28, G -0.18 ± 0.034, P -0.587 ± 0.08, A 0.017 ± 0.037, F 0.072 ± 0.088, N -0.548 ± 0.11, H 0.051 ± 0.069, Q -0.231 ± 0.052, L -0.378 ± 0.044, W -0.03 ± 0.04, T -0.774 ± 0.09
L65: R -0.497 ± 0.044, G -0.392 ± 0.039, N -0.322 ± 0.089, E 0.06 ± 0.04, D 0.015 ± 0.055, M -0.069 ± 0.047, V -0.019 ± 0.035, C -0.265 ± 0.06, H 0.102 ± 0.07, A -0.228 ± 0.044, Q 0.029 ± 0.048, Y -0.069 ± 0.069, K -0.342 ± 0.06, F -0.039 ± 0.078, T -0.133 ± 0.052, S -0.472 ± 0.059
Q57: Y 0.296 ± 0.21, S -0.059 ± 0.06, F -0.036 ± 0.11, D 0.046 ± 0.095, P -0.042 ± 0.083, W 0.156 ± 0.068, G 0.07 ± 0.047, E 0.183 ± 0.06, M -0.121 ± 0.15, C -0.093 ± 0.14, A -0.035 ± 0.058, R -0.231 ± 0.052, T -0.088 ± 0.1, V -0.567 ± 0.084, L -0.221 ± 0.083, N 0.163 ± 0.12, H 0.054 ± 0.12, K -0.341 ± 0.11
L61: H -0.668 ± 0.12, T -0.771 ± 0.092, K -0.78 ± 0.1, A -0.72 ± 0.07, E -0.38 ± 0.053, S -0.691 ± 0.07, W -0.05 ± 0.041, Y -0.152 ± 0.068, F -0.062 ± 0.058, V -0.555 ± 0.05, P -0.65 ± 0.088
